Here are results for two variants from publication PMC11772769 (2024).

What is called Kd is the free concentration of one partner at which half of the binding sites on the other are occupied at equilibrium, for simple one-to-one binding.

B1: MBP-SNX17 (full-length, wild-type) [not stated] / Peptide LRP1_(14mer) [modified: 5-FAM (5-carboxyfluorescein) on the N-terminus; 5-FAM (5-carboxyfluorescein) on the N-terminus] [not stated] (parent complex)
chain 1: MHFSIPETESRSGDSGGSAYVAYNIHVNGVLHCRVRYSQLLGLHEQLRKEYGANVLPAFPPKKLFSLTPAEVEQRREQLEKYMQAVRQDPLLGSSETFNSFLRRAQQETQQVPTEEVSLEVLLSNGQKVLVNVLTSDQTEDVLEAVAAKLDLPDDLIGYFSLFLVREKEDGAFSFVRKLQEFELPYVSVTSLRSQEYKIVLRKSYWDSAYDDDVMENRVGLNLLYAQTVSDIERGWILVTKEQHRQLKSLQEKVSKKEFLRLAQTLRHYGYLRFDACVADFPEKDCPVVVSAGNSELSLQLRLPGQQLREGSFRVTRMRCWRVTSSVPLPSGSTSSPGRGRGEVRLELAFEYLMSKDRLQWVTITSPQAIMMSICLQSMVDELMVKKSGGSIRKMLRRRVGGTLRRSDSQQAVKSPPLLESPDATRESMVKLSSKLSAVSLRGIGSPSTDASASDVHGNFAFEGIGDEDL
chain 2: MNVEIGNPTYKMYE

Variants of B1 are the subject of the experiment. Kind of experiment: fluorescence anisotropy; 5-FAM-labeled LRP1 14-mer peptide. Background: Fluorescence polarisation rises when a labelled molecule tumbles more slowly, as on binding a larger partner.
Turning to chain 1 MHFSIPETESRSGDSGGSAYVAYNIHVNGVLHCRVRYSQLLGLHEQLRKEYGANVLPAFPPKKLFSLTPAEVEQRREQLEKYMQAVRQDPLLGSSETFNSFLRRAQQETQQVPTEEVSLEVLLSNGQKVLVNVLTSDQTEDVLEAVAAKLDLPDDLIGYFSLFLVREKEDGAFSFVRKLQEFELPYVSVTSLRSQEYKIVLRKSYWDSAYDDDVMENRVGLNLLYAQTVSDIERGWILVTKEQHRQLKSLQEKVSKKEFLRLAQTLRHYGYLRFDACVADFPEKDCPVVVSAGNSELSLQLRLPGQQLREGSFRVTRMRCWRVTSSVPLPSGSTSSPGRGRGEVRLELAFEYLMSKDRLQWVTITSPQAIMMSICLQSMVDELMVKKSGGSIRKMLRRRVGGTLRRSDSQQAVKSPPLLESPDATRESMVKLSSKLSAVSLRGIGSPSTDASASDVAGNFAFEGIGDEDL [chain 1 H457A], the Kd came to 3800 nM.
chain 1 MHFSIPETESRSGDSGGSAYVAYNIHVNGVLHCRVRYSQLLGLHEQLRKEYGANVLPAFPPKKLFSLTPAEVEQRREQLEKYMQAVRQDPLLGSSETFNSFLRRAQQETQQVPTEEVSLEVLLSNGQKVLVNVLTSDQTEDVLEAVAAKLDLPDDLIGYFSLFLVREKEDGAFSFVRKLQEFELPYVSVTSLRSQEYKIVLRKSYWDSAYDDDVMENRVGLNLLYAQTVSDIERGWILVTKEQHRQLKSLQEKVSKKEFLRLAQTLRHYGYLRFDACVADFPEKDCPVVVSAGNSELSLQLRLPGQQLREGSFRVTRMRCWRVTSSVPLPSGSTSSPGRGRGEVRLELAFEYLMSKDRLQWVTITSPQAIMMSICLQSMVDELMVKKSGGSIRKMLRRRVGGTLRRSDSQQAVKSPPLLESPDATRESMVKLSSKLSAVSLRGIGSPSTDASASDVHGAFAAEGIGDEDL [chain 1 N459A, chain 1 F462A]: the Kd came to 1500 nM.
